According to publication PMC3919625 (Cell reports, 2013):

B1: 2G12 IgG monomer (antibody, V domains shown)
VH: EVQLVESGGGLVKAGGSLILSCGVSNFRISAHTMNWVRRVPGGGLEWVASISTSSTYRDYADAVKGRFTVSRDDLEDFVYLQMHKMRVEDTAIYYCARKGSDRLSDNDPFDAWGPGTVVTVSP
VL: VVMTQSPSTLSASVGDTITITCRASQSIETWLAWYQQKPGKAPKLLIYKASTLKTGVPSRFSGSGSGTEFTLTISGLQFDDFATYHCQHYAGYSATFGQGTRVEIK
B2: 2G12 IgG dimer (antibody, V domains shown)
VH: B1 VH
VL: B1 VL

Target: gp120 from HIV-1 strain SF162 (clade B) (HIV-1 group M subtype B, isolate SF162, UniProt P19550, strain)
Assay: SPR

| Binder | binding result |
| --- | --- |
| B1 | binds |
| B2 | binds |
